{"source": "paper PMC6034511", "test_system": "HIV-1 RT p66/p51 wild type (HIV-1)", "assay": "fluorescence polarization", "details": "not stated in the held text (SI Experimental section)", "data": [{"substance": "5'-fluorescein DNA/RNA hybrid", "values": [{"measurement": "Kd", "value": 3.5, "unit": "nM"}]}]}
